Data on 34 molecules can be found in US20110123544A1 (published 2011).

Changes are numbered by the printed parent chain. Names and notes keep the numbering of the source. Like-named read-outs stand apart in the source and are kept apart here.

Experiment [1] deals with T1, recombinant human interleukin 12 (p40/p35 heterodimer) (human, UniProt P29460 23-328; P29459 23-219).
T1 chain 1: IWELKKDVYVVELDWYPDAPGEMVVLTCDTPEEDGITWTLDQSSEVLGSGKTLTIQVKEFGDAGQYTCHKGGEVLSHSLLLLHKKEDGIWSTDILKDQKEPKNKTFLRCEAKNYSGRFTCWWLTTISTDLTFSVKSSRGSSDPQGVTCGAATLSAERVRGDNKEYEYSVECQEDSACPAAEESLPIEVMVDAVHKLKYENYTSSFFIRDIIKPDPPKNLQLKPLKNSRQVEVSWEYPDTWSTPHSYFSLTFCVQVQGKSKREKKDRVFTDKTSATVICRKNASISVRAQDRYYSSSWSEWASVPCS
T1 chain 2: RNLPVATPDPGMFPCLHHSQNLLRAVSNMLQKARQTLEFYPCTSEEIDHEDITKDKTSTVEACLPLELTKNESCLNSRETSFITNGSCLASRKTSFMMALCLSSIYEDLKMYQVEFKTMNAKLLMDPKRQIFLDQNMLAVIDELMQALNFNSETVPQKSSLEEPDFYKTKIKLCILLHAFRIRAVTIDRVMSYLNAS
Kind of experiment: BIAcore; unmutated. (In general: Surface plasmon resonance follows binding to a sensor surface in real time, without labels.)

Experiment [2] deals with T2, recombinant human IL-12 (rhIL-12) (human, UniProt P29459 23-219; P29460 23-328).
T2 chain 1: T1 chain 2
T2 chain 2: T1 chain 1
As to the kind of experiment: BIAcore.

The target of experiment [3] is T1, recombinant human interleukin 12 …. Kind of experiment: BIAcore; unmutated.
The target of experiment [4] is T3, recombinant human IL-12 (rhIL-12) (human, UniProt P29459 23-219; P29460 23-328).
T3 construct: disulfide-linked p35/p40 heterodimer (p70); also called rec. human IL12; IL-12 p70
T3 sequence (looked up) 1: T1 chain 2
T3 sequence (looked up) 2: T1 chain 1
Kind of experiment: BIAcore (SPR) off-rate on IL-12 chip.
Description: The system utilizes the optical properties of SPR to detect alterations in protein concentrations within a dextran biosensor matrix. Proteins are covalently bound to the dextran matrix at known concentrations. […] To determine the off rate (koff), on rate (kₒₙ), association rate (Ka) and dissociation rate (Kd) constants, BIAcore kinetic evaluation software (version 2.1) was used.

Experiment [5] addresses T3, recombinant human IL-12 (rhIL-12). As to the kind of experiment: cell-based or functional assay.
Experiment [6] shares this target. Kind of experiment: RB assay: inhibition of 125I-hIL-12 binding to IL-12 receptors on PHA blasts.
Protocol: PHA blast cells isolated as described above, were washed once and resuspended in binding buffer to a cell density of 2×10⁷ cells/ml. […] The cell pellet was examined for cell bound radioactivity using a gamma counter. […] Incubations were carried out in duplicate.
Experiment [7] shares this target. As to the kind of experiment: cell-based or functional assay. This is another data set of the same source.

As to FIRYDGSNKYYADSVKG [Y61 H50 F], the dissociation rate constant (koff) in experiment [1] was 0.000204 s⁻¹.

HGSHVN [Y61 H101 V]: the off-rate (koff) in experiment [2] is 0.00163 s⁻¹.

For the molecule HGSHAN [Y61 H101 A], the dissociation rate constant (koff) in experiment [2] is 0.00106 s⁻¹.

With HGSHIN [Y61 H101 I], the off-rate constant (koff) in experiment [2] was found to be 0.00162 s⁻¹. As for FTFSSYGMH [Y61 H30 S], in experiment [3], the koff was 0.000168 s⁻¹. In the case of HGSHDR [Y61 H102 R], the dissociation rate constant (koff) in experiment [2] was found to be 0.000575 s⁻¹.

In the case of HGSHNN [Y61 H101 N], the koff in experiment [2] was 0.00223 s⁻¹. For the molecule HGSHDI [Y61 H102 I], in experiment [2], the off-rate constant (koff) was determined as 0.000996 s⁻¹.

Regarding HGSHDG [Y61 H102 G], the koff in experiment [2] came to 0.000692 s⁻¹. As to HGSHDF [Y61 H102 F], the koff in experiment [2] amounted to 0.000318 s⁻¹.

B1: Y61 (scFv, V domains shown)
VH: QVQLVQSGGGVVQPGRSLRLSCAASGFTFSSYGMHWVRQAPGKGLEWVAFIRYDGSNKYYADSVKGRFTISRDNSKNTLYLQMKSLRAEDTAVYYCKTHGSHDNWGQGTMVTVSS
VL: SYVLTQPPSVSGTPGQRVTISCSGGRSWIGSNTVKWYQQLPGTAPKLLIYGNDQRPSGVPDRFSGSKSGTSASLAITGVQAEDEADYYCQSYDRGTHPALLFGTGTKVTVLG
notes: scFv; also called Y61 scFv
Turning to B1, the koff in experiment [4] stood at 0.000275 s⁻¹. Besides, the “PHA assay IC50” value in experiment [5] was 0.14 nM. In experiment [6], the 50% inhibitory concentration (IC50) was 0.04 nM.

B2: 99-H7 (scFv, V domains shown)
VH: B1 VH
VL: B1 VL with W28N, D93P, R94D, H97P, P98A, A99S, L100R, L101V
As to B2, the koff in experiment [4] turned out to be 0.0033 s⁻¹.

B3: Y61-L50Y-H31E IgG (antibody, V domains shown)
VH: B1 VH with S31E
VL: B1 VL with G51Y
On to B3, for which the off-rate constant (koff) in experiment [4] came to 2.99e-05 s⁻¹. Further, in experiment [5], the “IFN gamma IC50” value was 0.02 nM and the “PHA assay IC50” value amounted to 0.06 nM.

B4: 99-F6 (scFv, V domains shown)
VH: B1 VH
VL: B1 VL with W28N, R94S, T96S, H97T, P98G, A99S, L100R, L101V
On to B4, for which the off-rate constant (koff) in experiment [4] was 0.0049 s⁻¹.

B5: 136-15 (scFv, V domains shown)
VH: B1 VH
VL: B1 VL with G25S, W28N, S91T, R94K, T96F, H97T, P98G, A99S, L100S, L101V
With B5, in experiment [7], the “PHA assay IC50 (M) p70:p40 1:20” value was determined as 5e-09 M and the “PHA assay IC50 (M) p70:p40 1:50” value was determined as 4e-09 M.

B6: 99-H4 (scFv, V domains shown)
VH: B1 VH
VL: B1 VL with W28N, R94S, G95R, T96F, H97T, P98G, A99S, L100R, L101V
In the case of B6, the dissociation rate constant (koff) in experiment [4] was 0.0048 s⁻¹.

B7: Y61-L50Y-H31E-L94Y IgG (antibody, V domains shown)
VH: B1 VH with S31E
VL: B1 VL with W28N, G51Y, G95Y
Regarding B7, the off-rate constant (koff) in experiment [4] is 4.64e-05 s⁻¹. For the same molecule, in experiment [5], the “IFN gamma IC50” value amounted to 0.01 nM and the “PHA assay IC50” value turned out to be 0.01 nM.

B8: 149-6 (scFv, V domains shown)
VH: B1 VH with K97T
VL: B1 VL with W28N, G30V, T96F, H97T, P98G, A99S, L100R, L101V
For B8, in experiment [7], the “PHA assay IC50 (M) p70:p40 1:0” value was 9e-10 M, the “PHA assay IC50 (M) p70:p40 1:20” value turned out to be 1e-09 M and the “PHA assay IC50 (M) p70:p40 1:50” value was found to be 1e-09 M.

B9: Y19 (scFv, V domains shown)
VH: B1 VH
VL: B1 VL with W28N, T96H, L100M, L101S
B9: the off-rate (koff) in experiment [4] turned out to be 0.000226 s⁻¹. Further, in experiment [5], the “PHA assay IC50” value was greater than 10 nM. Also, the 50% inhibitory concentration (IC50) in experiment [6] was determined as 0.03 nM.

B10: 99-F8 (scFv, V domains shown)
VH: B1 VH
VL: SYVLTQPPSVSGTPGQRVTISCSGGRSNIGSNTVKWYQQLPGTAPKLLIYGNDQRPSGVPDRFSGSKSGTSASLAITGVQAEDEADYYCQSYIRAPQQVFGTGTKVTVLG
Consider B10, for which the dissociation rate constant (koff) in experiment [4] turned out to be 0.0037 s⁻¹.

B11: Y55 (scFv, V domains shown)
VH: B1 VH
VL: B1 VL with W28N, P98F, A99Q, L100M, L101Y
Turning to B11, the off-rate constant (koff) in experiment [4] is 0.00106 s⁻¹. In addition, in experiment [5], the “PHA assay IC50” value was greater than 10 nM. For the same molecule, in experiment [6], the IC50 is 0.14 nM.

B12: 99-H11 (scFv, V domains shown)
VH: B1 VH
VL: B1 VL with W28N, D93S, R94T, G95H, T96M, H97P, P98I, A99S, L100R, L101V
For the molecule B12, in experiment [4], the koff stood at 0.0049 s⁻¹.

B13: 99-F7 (scFv, V domains shown)
VH: B1 VH
VL: B1 VL with W28N, D93P, R94N, G95S, T96Y, H97P, P98I, A99S, L100R, L101V
For B13, the off-rate (koff) in experiment [4] stood at 0.0048 s⁻¹.

B14: 149-5 (scFv, V domains shown)
VH: B1 VH with K97T, N104T
VL: B1 VL with W28N, R94S, G95S, T96L, H97W, P98G, A99T, L100R, L101V
On to B14, for which, in experiment [7], the “PHA assay IC50 (M) p70:p40 1:0” value stood at 6.5e-09 M, the “PHA assay IC50 (M) p70:p40 1:20” value stood at 7e-09 M and the “PHA assay IC50 (M) p70:p40 1:50” value was determined as 4e-09 M.

B15: D9 (scFv, V domains shown)
VH: B1 VH
VL: B1 VL with W28N, T96R, H97L, L100Q, L101T
For the molecule B15, in experiment [4], the koff was determined as 0.000821 s⁻¹. Further, the IC50 in experiment [6] turned out to be 3.5 nM. As for FTFSSYGMH [Y61 H32 Y], the koff in experiment [3] came to 0.000337 s⁻¹. Same read-out and setting: as for FTFSSYGMH [Y61 H31 S], the figure is 0.000249 s⁻¹. With HGSHDL [Y61 H102 L], the dissociation rate constant (koff) in experiment [2] worked out at 0.000956 s⁻¹. Take FIRYDGSNKYYADSVKG [Y61 H52 R]: the off-rate (koff) in experiment [1] worked out at 0.000206 s⁻¹. As for FIRYDGSNKYYADSVKG [Y61 H54 G], in experiment [1], the koff came out at 0.000178 s⁻¹. FIRYDGSNKYYADSVKG [Y61 H53 D]: the dissociation rate constant (koff) in experiment [1] was found to be 0.000151 s⁻¹. Take HGSHDP [Y61 H102 P]: the koff in experiment [2] was found to be 0.00181 s⁻¹. In the case of FTFSSYGMH [Y61 H33 G], the koff in experiment [3] came to 0.000178 s⁻¹. HGSHDT [Y61 H102 T]: the koff in experiment [2] was found to be 0.000333 s⁻¹.

For orientation: koff means the first-order rate constant of dissociation. As usually defined, the IC50 is the point on the concentration scale where inhibition reaches its midpoint.
